Consider one molecule from patent US20240040982, “CEREAL GRAIN WITH THICKENED ALEURONE” (Commonwealth Scientific and Industrial Research Organisation, published 2024).

In this data set the target is T1, TA1 (OsmtSSB-1a) (Oryza sativa).
T1 chain: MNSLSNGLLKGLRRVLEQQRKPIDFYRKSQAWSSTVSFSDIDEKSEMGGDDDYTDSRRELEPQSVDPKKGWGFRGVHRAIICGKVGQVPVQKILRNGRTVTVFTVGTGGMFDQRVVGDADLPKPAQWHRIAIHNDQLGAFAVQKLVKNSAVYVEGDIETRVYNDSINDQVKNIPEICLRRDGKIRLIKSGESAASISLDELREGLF
The data set is described as follows: EMSA; 2 ug protein, 750 amol probe, room temperature 10 min; competed by 2x, 20x, 200x unlabelled ssDNA. The settings on record: tags: N-terminal 6xHis (pET-30a), expressed in E. coli; label: 3' biotin (biotinylated CTP). As for the experimental part: The affinity of purified 6×His-TA1 protein for ssDNA was determined using an EMSA (Thermo Cat. No. 20148X) as described in general terms by Reddy et al. (2001). A 45-nucleotide single-stranded oligonucleotide (SEQ ID NO:60) was labelled at the 3′ end with biotinylated CTP (Thermo Cat. No. 89818) according to the manufacturer's instructions. Recombinant 6×His-TA1 protein (2 μg) was added to 750 attomoles of biotin-labelled oligonucleotide and the mixture was incubated at room temperature for 10 min. A control sample lacked the 6×His-TA1 protein was applied to lane 1 in FIG. 11. Separate reactions were carried out in the presence of a 60-bp double-stranded DNA (dsDNA; control fragment from Thermo EMSA kit) to determine if the mobility shift was specific for ssDNA. Binding reaction products were separated by electrophoresis in a 5% native polyacrylamide gel in 0.5×TBE (Bio-Rad) and transferred to a nylon membrane (Bio-Rad). DNA bands were visualized using streptavidin-conjugated horseradish peroxidase (Thermo).
Background: A gel shift assay detects complexes by their altered migration in electrophoresis.

Take ACTCCCTCTCCCTTGCGGATTCGAATGGTAGTACATTCTCTTCGA (ssDNA) [45-nt EMSA ssDNA probe]: the binding result was “binds”.
